Where a chain is given by its changes, count along the chain named. Where two headings read alike, the source gives them in different places. Values belong to the binder of their own block, whether it stands above or below them.
Tests used:
[1] = biological target: T1, human IL4Rα expressed on 293F-IL4Rα cells (human, UniProt P24394 26-825); assay: flow cytometry on 293F-IL4Rα cells, blocked ligand biotin human IL4
T1 construct: whole, on cells; also called cell surface human IL4Rα

[2] = biological target: T1, human IL4Rα expressed on 293F-IL4Rα …; assay: flow cytometry, blocks biotin-IL4 binding to 293F-IL4Rα cells
Protocol: Then, 1×10⁵ cells per well in 96 well-plates were incubated in 100 μL of the anti-IL4Rα antibodies or controls of various concentrations (starting at 80 nM with a 4-fold serial dilution) in FACS buffer for 40 minutes on ice. The plates were washed twice with FACS buffer, and added and incubated for 40 minutes at 4° C. in dark with 100 μl/well 1.67 nM biotin-labeled human IL4 protein (Sino biological inc., Cat #11846-HNAE). The plates were washed twice with FACS buffer, and then added and incubated for 40 minutes at 4° C. in dark with 100 μl/well R-Phycoerythrin Streptavidin (1:500 dilution in FACS buffer, Jackson Immunoresearch, Cat #016-110-084). Cells were washed twice and resuspended in FACS buffer. Fluorescence was measured using a Becton Dickinson FACS Canto II-HTS equipment. Data was analyzed using Graphpad Prism software and IC₅₀ values were reported.

[3] = biological target: T1, human IL4Rα expressed on 293F-IL4Rα …; assay: flow cytometry, 293F-IL4Rα cells
Protocol: Then, 2×10⁵ cells per well in 96 well-plates were incubated in 100 μL of the anti-IL4Rα antibodies or controls of various concentrations (starting at 80 nM with a 4-fold serial dilution) in FACS buffer for 40 minutes on ice. […] Following an incubation of 40 minutes at 4° C. in dark, cells were washed three times and resuspended in FACS buffer. Fluorescence was measured using a Becton Dickinson FACS Canto II-HTS equipment. Data was analyzed using Graphpad Prism software and EC₅₀ values were reported.

[4] = biological target: T2, recombinant human IL4Rα-his protein (in house made) (human, UniProt P24394 26-232, limits assumed); assay: competitive ELISA, blocks biotin-IL4Rα-his binding to coated Benchmark (competitor)
T2 construct: also called Human IL4Ra-his
Protocol: The ability of the anti-IL4Rα antibodies of the disclosure to block benchmark-human IL4Rα binding was measured in a competitive ELISA assay. Briefly, the benchmark was coated on 96-well micro plates at 2 μg/mL in PBS, 100 μl per well, and incubated overnight at 4° C. The next day, plates were washed with wash buffer (PBS+0.05% w/v Tween-20, PBST), and blocked with 5% w/v non-fatty milk in PBST for 2 hours at 37° C. tiring plate blocking, the anti-IL4Rα antibodies of the disclosure or controls were diluted with biotin labeled human IL4Rα-his proteins (prepared in-house with SEQ ID NO: 57, 0.55 nM in 2.5% w/v non-fatty milk in PBST), starting at 100 nM with a 4-fold serial dilution, and incubated at 25° C. for 40 minutes. After plate washing, the antibody/IL4Rα-his mixtures were added to benchmark coated plates, 100 μl per well. After incubation at 37° C. for 40 minutes, plates were washed using wash buffer. Then the plates were added and incubated with 100 μl/well streptavidin conjugated HRP for 40 minutes at 37° C. to detect biotin-labeled human IL4Rα-his bound to plates. Plates were washed again using wash buffer. Finally, TMB was added and the reaction was stopped using 1M H₂SO₄, and the absorbance was read at 450 nm. Data was analyzed using Graphpad Prism software and IC₅₀ values were reported.

[5] = biological target: T3, cynomolgus monkey IL4Rα-his protein (cynomolgus monkey, UniProt A0A2K5V580 33-239); assay: indirect ELISA on coated cynomolgus IL4Rα-his
T3 construct: Bought protein; also called Cynomolgus IL4Rα; Cyno-IL4Rα-his; not shown: his tag

[6] = biological target: T4, marmoset monkey IL4Rα-his protein (marmoset monkey); assay: indirect ELISA on coated cal-IL4Rα-his
T4 construct: Custom made by Sino biological; no cleavage site stated; also called cal-IL4Rα-his; Cal-IL4Rα
T4 chain: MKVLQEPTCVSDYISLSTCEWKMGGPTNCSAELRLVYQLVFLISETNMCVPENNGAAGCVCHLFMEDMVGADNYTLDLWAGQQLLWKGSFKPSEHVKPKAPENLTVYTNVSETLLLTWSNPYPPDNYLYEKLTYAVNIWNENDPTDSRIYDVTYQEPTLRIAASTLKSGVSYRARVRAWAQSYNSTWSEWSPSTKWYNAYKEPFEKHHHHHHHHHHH

[7] = biological target: T2, recombinant human IL4Rα-his protein (in …); assay: competitive ELISA: antibody mixed with biotin human IL4Rα-his, competitor plate-coated Benchmark
[8] = biological target: T2, recombinant human IL4Rα-his protein (in …); assay: competitive ELISA: coated human IL4Rα-his, blocked ligand biotin human IL4
[9] = biological target: T2, recombinant human IL4Rα-his protein (in …); assay: SPR (Biacore), antibody captured, IL4Rα-his flowed
[10] = biological target: T4, marmoset monkey IL4Rα-his protein; assay: indirect ELISA, coated cal-IL4Rα-his
[11] = biological target: T2, recombinant human IL4Rα-his protein (in …); assay: capture ELISA: antibody captured on anti-IgG Fc plate, biotin human IL4Rα-his detected
[12] = biological target: T1, human IL4Rα expressed on 293F-IL4Rα …; assay: flow cytometry on 293F-IL4Rα cells
[13] = biological target: T2, recombinant human IL4Rα-his protein (in …); assay: capture ELISA, biotin-IL4Rα-his
[14] = biological target: T3, cynomolgus monkey IL4Rα-his protein; assay: indirect ELISA, coated cyno IL4Rα-his
[15] = biological target: T2, recombinant human IL4Rα-his protein (in …); assay: SPR (Biacore), antibody captured, IL4Rα-his flowed; remark: listed apart in the source
[16] = biological target: T2, recombinant human IL4Rα-his protein (in …); assay: competitive ELISA, blocks biotin-IL4 binding to coated IL4Rα-his
Protocol: Serially diluted anti-IL4Rα antibodies or the controls (starting at 80 nM with a 4-fold serial dilution) in 2.5% w/v non-fatty milk in PBST, 100 μl per well, were added to the IL4Rα bound plates, and incubated with the human IL4Rα-his proteins at 37° C. for 40 minutes. Plates were washed 4 times using wash buffer, and then added and incubated for 40 minutes at 37° C. with 100 μl/well of 0.56 nM biotin-labeled human IL4 protein (Sino biological inc., Cat #11846-HNAE). Plates were washed again using wash buffer. Thereafter, the plates were added with 100 μl/well of streptavidin conjugated HRP (1:10000 dilution in PBST buffer, Jackson Immunoresearch, Cat #016-030-084) and incubated for 40 minutes at 37° C. Plates were washed again using wash buffer. Finally, TMB was added and the reaction was stopped using 1M H₂SO₄, and the absorbance was read at 450 nm. Data was analyzed using Graphpad Prism software and IC₅₀ values were reported.

[17] = biological target: human IL4Rα expressed on HEK293T-IL4Rα-STAT6-STAT6LUC-LB2 cells (human, UniProt P24394 26-825); assay: cell-based or functional assay

B1: huB8G11F2B7G5E8-V14 (antibody, human IgG4 S228P, kappa, V domains shown)
VH: EVQLVQSGAEVKKPGATVKISCKVSGFNIKDTYMHWVKQAPGKGLEWMGRIDPTNGYTIYASKFQGKATITADTSSNTAYMELSSLRSEDTAVYHCVSRRPWFAYWGQGTLVTVSS
VL: DIVMTQTPLSLSVTPGQPASISCRSSQSIVHSNGNTYLEWYLQKPGQSPQLLIYKVTNRFSGVPDRFSGSGSGTDFTLKISRVEAEDVGVYYCFQGSHVPYTFGQGTKLEIKR
notes: Humanized, human IgG4/kappa; also called huBSG11F2B7G5E8-V14
- IC50 [1]: 0.601 nM
- IC50 [2]: 0.6 nM
- EC50 [3]: 0.52 nM
- IC50 [4]: 0.76 nM
- EC50 [5]: 137 nM
- EC50 [6]: 1.06 nM
- IC50 [7]: 0.763 nM
- IC50 [8]: 1.02 nM
- Kd [9]: 3.88 nM
- EC50 [10]: 1.06 nM
- EC50 [11]: 0.237 nM
- EC50 [12]: 0.517 nM
- EC50 [13]: 0.24 nM
- EC50 [14]: 137 nM
- Kd [15]: 3.69 nM
- koff [15]: 0.00113 s⁻¹
- kon [15]: 306000 M⁻¹ s⁻¹
- IC50 [16]: 1.02 nM
- Inhibition on IL4 induced STAT6 phosphorylation (IC50, nM) [17]: 0.26 nM
- Inhibition on IL13 induced STAT6 phosphorylation (IC50, nM) [17]: 0.66 nM

B2: huB8G11F2B7G5E8-V13 (antibody, human IgG4 S228P, kappa, V domains shown)
VH: QVQLQQSGAELVKPGASVKLSCTASGFNIKDTYMHWVKQRPEQGLEWVGRIDPTNGYTIYASKFQGKATITADTSSNTAYMQLSSLTSEDTAVYHCVSRRPWFAYWGQGTTLTVSS
VL: B1 VL
notes: Humanized, human IgG4/kappa; also called huBSG11F2B7G5E8-V13
- Kd [15]: 3.87 nM
- koff [15]: 0.0012 s⁻¹
- kon [15]: 310000 M⁻¹ s⁻¹

B5: huB8G11F2B7G5E8-V11 (antibody, human IgG4 S228P, kappa, V domains shown)
VH: B1 VH with K38Q, R50L, S62E, K67R, A68V, S76T, N77D, H95Y
VL: B1 VL
notes: Humanized, human IgG4/kappa; also called huBSG11F2B7G5E8-V11
- Kd [15]: 14.9 nM

B6: huB8G11F2B7G5E8-V4 (antibody, human IgG4 S228P, kappa, V domains shown)
VH: B1 VH with V24A
VL: B1 VL
notes: Humanized, human IgG4/kappa; also called huBSG11F2B7G5E8-V4
- IC50 [1]: 0.513 nM
- IC50 [2]: 0.51 nM
- EC50 [3]: 0.41 nM
- IC50 [4]: 1.24 nM
- EC50 [5]: 7.12 nM
- EC50 [6]: 0.726 nM
- IC50 [7]: 1.24 nM
- IC50 [8]: 0.825 nM
- Kd [9]: 5.5 nM
- EC50 [10]: 0.73 nM
- EC50 [11]: 0.275 nM
- EC50 [12]: 0.414 nM
- EC50 [13]: 0.27 nM
- EC50 [14]: 7.12 nM
- Kd [15]: 3.21 nM
- koff [15]: 0.00185 s⁻¹
- kon [15]: 577000 M⁻¹ s⁻¹
- IC50 [16]: 0.82 nM
- Inhibition on IL4 induced STAT6 phosphorylation (IC50, nM) [17]: 0.3 nM
- Inhibition on IL13 induced STAT6 phosphorylation (IC50, nM) [17]: 0.81 nM

The next lines start with the values.

- IC50 [1]: 0.538 nM
- IC50 [2]: 0.54 nM
- EC50 [3]: 0.43 nM
- IC50 [4]: 1.2 nM
- EC50 [5]: 914 nM
- EC50 [6]: 0.799 nM
- IC50 [7]: 1.2 nM
- IC50 [8]: 1 nM
- Kd [9]: 4.1 nM
- EC50 [10]: 0.8 nM
- EC50 [11]: 0.274 nM
- EC50 [12]: 0.426 nM
- EC50 [13]: 0.27 nM
- EC50 [14]: 914 nM
- Kd [15]: 3.1 nM
- koff [15]: 0.00162 s⁻¹
- kon [15]: 521000 M⁻¹ s⁻¹
- IC50 [16]: 1 nM
- Inhibition on IL4 induced STAT6 phosphorylation (IC50, nM) [17]: 0.4 nM
- Inhibition on IL13 induced STAT6 phosphorylation (IC50, nM) [17]: 0.63 nM
B3: huB8G11F2B7G5E8-V2 (antibody, human IgG4 S228P, kappa, V domains shown)
VH: B1 VH with M48V
VL: B1 VL
notes: Humanized, human IgG4/kappa; also called huBSG11F2B7G5E8-V2

- Kd [15]: 4.79 nM
- koff [15]: 0.0028 s⁻¹
- kon [15]: 585000 M⁻¹ s⁻¹
B4: huB8G11F2B7G5E8-V10 (antibody, human IgG4 S228P, kappa, V domains shown)
VH: B1 VH with V24A, M48V, K67R, A68V, S76T
VL: B1 VL
notes: Humanized, human IgG4/kappa; also called huBSG11F2B7G5E8-V10

— patent publication US20230105029A1 (CHIA TAI TIANQING PHARMACEUTICAL GROUP, published 2023)
